PMC7117682, “A homogeneous SIRPα-CD47 cell-based, ligand-binding assay: Utility for small molecule drug development in immuno-oncology” (PLoS ONE, 2020)

Key:
Conditions in all cases: one partner purified
[1] = molecular target: T1, CD47 naturally expressed on CD47(+) Jurkat T lymphoma cells (human (endogenous in Jurkat), UniProt Q08722 19-323); assay: laser scanning cytometry (LSC) on cells; titration of SIRPα-biotin on Jurkat cells fixed in 4% paraformaldehyde (30 min on ice), homogeneous, neutravidin-Alexa488; with or without 1% DMSO
T1 construct: CD47, human, endogenous on the surface of Jurkat T lymphoma cells; also called cell-expressed CD47; native, cell surface expressed CD47; source: endogenous, on Jurkat cells (live or fixed in 4% paraformaldehyde)

[2] = molecular target: T1, CD47 naturally expressed on CD47(+) …; assay: laser scanning cytometry (LSC) on cells; titration of SIRPα-biotin on live DRAQ5-labelled Jurkat cells, 384-well, homogeneous (no wash), HEPES buffer (10 mM HEPES pH 7.5, 0.15 M NaCl), room temperature, neutravidin-Alexa488 0.5 μg/mL; SIRPα presented as a multimer on tetrameric neutravidin (avidity)
[3] = molecular target: T1, CD47 naturally expressed on CD47(+) …; assay: laser scanning cytometry (LSC) on cells; competition on live CD47(+) Jurkat cells, 384-well, homogeneous: a fixed concentration of SIRPα-biotin (20 nM) co-incubated with a titration of the competitor or inhibitor, neutravidin-Alexa488

T1 sequence (Q08722 19-323): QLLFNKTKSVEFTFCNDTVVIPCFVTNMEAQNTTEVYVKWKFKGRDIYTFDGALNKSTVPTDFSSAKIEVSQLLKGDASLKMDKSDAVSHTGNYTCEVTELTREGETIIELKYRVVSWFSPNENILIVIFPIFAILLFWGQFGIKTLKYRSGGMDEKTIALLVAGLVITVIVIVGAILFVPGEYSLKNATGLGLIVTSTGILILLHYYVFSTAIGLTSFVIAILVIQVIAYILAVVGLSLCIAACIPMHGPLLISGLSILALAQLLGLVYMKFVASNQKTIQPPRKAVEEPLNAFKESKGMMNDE

Row | EC50 [1] [nM] | EC50 [2] [nM] | IC50 [3] [nM] | Binder
1 | 1.3 | 4.6 | – | SIRPα-Avi-biotin (soluble, biotin-conjugated SIRPα d1 construct; allelic variant not stated for the experiment) (domain or fragment, biotin (biotin-conjugated, SIRPα-Avi-biotin)) EELQVIQPDKSVLVAAGETATLRCTATSLIPVGPIQWFRGAGPGRELIYNQKEGHFPRVTTVSDLTKRNNMDFSIRIGNITPADAGTYYCVKFRKGSPDDVEFKSG
2 | – | – | 7500 | SIRPα variant 1, non-biotin conjugated (cold) (domain or fragment, human, UniProt P78324 31-148, looked up, SIRPα allelic variant 1, human; non-biotin conjugated analog of the biotin-conjugated d1 construct; also called cold SIRPαV1; non-biotin conjugated SIRPαV1; source: produced as described in [33]) EEELQVIQPDKSVLVAAGETATLRCTATSLIPVGPIQWFRGAGPGRELIYNQKEGHFPRVTTVSDLTKRNNMDFSIRIGNITPADAGTYYCVKFRKGSPDDVEFKSGAGTELSVRAKP
